Among the data in patent publication US20200181247A1 are binding response (RU) and binding response units (BRUs), average values, retold here.

Experiment [1] deals with A-beta42 Oligomer (synthetic, prepared in F12 medium) (human). Description: SPR; purified antibody immobilized, A-beta preparation flowed over. (In SPR one partner is held on a chip, and binding of the other changes the refractive index at the surface.)
Experiment [2] deals with A-beta42 Monomer (human). The description is as above.
Experiment [3] deals with A-beta42 Oligomer (synthetic, prepared in F12 medium) (human). The experiment is described as follows: SPR (MASS-1) direct binding; hybridoma culture supernatant over immobilized A-beta42 oligomer.
The target in experiment [4] is T1, cyclo(CGHHQKG) (SEQ ID NO: 12) conjugated to BSA.
T1 sequence (peptide, cyclic peptide, cyclo(CGHHQKG); conjugated to BSA): CGHHQKG
The experiment is described as follows: SPR (MASS-1) direct binding; hybridoma culture supernatant over immobilized BSA-conjugated peptide.

For experiment [5], the target named is T2, linear CGHHQKG (SEQ ID NO: 12) conjugated to BSA.
T2 sequence (peptide, linear (not cyclized); conjugated to BSA): CGHHQKG
The experiment is described as above.

In experiment [6] the target is commercially-prepared stable A-beta42 Oligomers (SynAging SAS) (human). Description: SPR; antibody covalently immobilized, stable A-beta42 oligomers (1 microM) injected.
Experiment [7] has as its target A-beta42 Monomer (human). Description: SPR (MASS-1) direct binding; hybridoma culture supernatant over immobilized A-beta42 monomer.

Chain of A-beta42 Monomer (human) (peptide, as listed by the source): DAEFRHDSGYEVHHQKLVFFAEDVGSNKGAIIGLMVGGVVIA
Chain of A-beta42 Oligomer (synthetic, prepared in F12 medium) (human) (peptide, as listed by the source): as above
Chain of commercially-prepared stable A-beta42 Oligomers (SynAging SAS) (human) (peptide, as listed by the source): as above

B1: 301-3 (antibody, part only; not given: Light chain, two candidates, IgG3, V domains shown, part only)
VH: EVQLVESGGGLVKPGGSLKLSCAASGFTFSDYYMYWVRQTPEKRLEWVATISDGGSYTSYPDSVKGRFTISRDSAKNNLYLQMSSLKSEDTAMYYCARDYYGSNSYTSGFAYWGQGTLVTVSA
Consider B1, for which the binding response (RU) in experiment [1] is 15.5 RU; in the experiment with A-beta42 Monomer (human) [2], -23.8 RU; in experiment [3], 56.8 RU; in experiment [4], 469 RU; in experiment [5] it was 60.6 RU; in the experiment with A-beta42 Monomer (human) [7], -1.8 RU. For the same molecule, the binding response units (BRUs), average in experiment [6] stood at 14.5 BRU.
